Measurements from patent US20120178682A1, “GB1 Peptidic Compounds and Methods for Making and Using the Same” (priority 2010, published 2012).
Like-named read-outs stand apart in the source and are kept apart here.

B1: E01 (recombinant, His-tagged) (designed binder)
chain: MKIEEHHHHHHHHHHGGSTYKLILNGKTLKGETTTEAVDVYDAFDVFFVYAASNFSDFDDWTYDDATKTFTVTEGGSDK
B2: E01-D39F/V31A (designed binder)
chain: MKIEEHHHHHHHHHHGGSTYKLILNGKTLKGETTTEAVDVYDAFDVFFAYAASNFSFFDDWTYDDATKTFTVTEGGSDK
B3: E01-D39F/V22L (designed binder)
chain: MKIEEHHHHHHHHHHGGSTYKLILNGKTLKGETTTEAVDLYDAFDVFFVYAASNFSFFDDWTYDDATKTFTVTEGGSDK
B4: E01-D39F/F40I (designed binder)
chain: MKIEEHHHHHHHHHHGGSTYKLILNGKTLKGETTTEAVDVYDAFDVFFVYAASNFSFIDDWTYDDATKTFTVTEGGSDK
B5: E01-D39F/S35R (designed binder)
chain: MKIEEHHHHHHHHHHGGSTYKLILNGKTLKGETTTEAVDVYDAFDVFFVYAARNFSFFDDWTYDDATKTFTVTEGGSDK
B6: E01-D39F/S35E (designed binder)
chain: MKIEEHHHHHHHHHHGGSTYKLILNGKTLKGETTTEAVDVYDAFDVFFVYAAENFSFFDDWTYDDATKTFTVTEGGSDK
B7: E01-D39F/S35G (designed binder)
chain: MKIEEHHHHHHHHHHGGSTYKLILNGKTLKGETTTEAVDVYDAFDVFFVYAAGNFSFFDDWTYDDATKTFTVTEGGSDK
B8: E01-D39F (designed binder)
chain: MKIEEHHHHHHHHHHGGSTYKLILNGKTLKGETTTEAVDVYDAFDVFFVYAASNFSFFDDWTYDDATKTFTVTEGGSDK
B9: E01-D39F/D27E (designed binder)
chain: MKIEEHHHHHHHHHHGGSTYKLILNGKTLKGETTTEAVDVYDAFEVFFVYAASNFSFFDDWTYDDATKTFTVTEGGSDK
B10: E01-D39F/S38G (designed binder)
chain: MKIEEHHHHHHHHHHGGSTYKLILNGKTLKGETTTEAVDVYDAFDVFFVYAASNFGFFDDWTYDDATKTFTVTEGGSDK
B11: E01-D39F/A34S (designed binder)
chain: MKIEEHHHHHHHHHHGGSTYKLILNGKTLKGETTTEAVDVYDAFDVFFVYASSNFSFFDDWTYDDATKTFTVTEGGSDK

Experiments:
[1] = target: D-VEGF, synthetic D-protein form of VEGF-A(8-109) (Homo sapiens (Human)) (UniProt P15692); experiment: SPR (ProteOn XPR36), D-VEGF immobilized
[2] = target: D-VEGF, synthetic D-protein form of VEGF-A(8-109) (Homo sapiens (Human)) (UniProt P15692); experiment: SPR (ProteOn XPR36), D-VEGF immobilized; remark: listed apart in the source

Chain of D-VEGF, synthetic D-protein form of VEGF-A(8-109) (Homo sapiens (Human)) (P15692 214-315 limits assumed, form in doubt): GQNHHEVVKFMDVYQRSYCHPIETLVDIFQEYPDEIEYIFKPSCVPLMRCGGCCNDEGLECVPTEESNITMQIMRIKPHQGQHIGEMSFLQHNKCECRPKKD

Binder	Kd [1] [nM]	koff [1] [s⁻¹]	kon [1] [M⁻¹ s⁻¹]	Kd [2] [nM]	koff [2] [s⁻¹]	kon [2] [M⁻¹ s⁻¹]
B1	3.46	0.00117	338000	13.4	0.00347	260000
B2	2.99	0.00167	558000			
B3	1.14	0.00082	719000			
B4	2.29	0.00138	602000			
B5	5.35	0.00183	341000			
B6	4.52	0.00205	454000			
B7	5.4	0.00193	358000			
B8	3.48	0.00132	380000			
B9	3.1	0.00158	511000			
B10	2.83	0.00131	463000			
B11	4.49	0.00174	387000			
